# From publication PMC7646477
# Target: rhCD39-ECD
# Experiment: BLI
# Settings: 30.0 °C
substance,measurement,setting,value
TTX-030,Kd,pH 6.5,approximately 1.5 nM
same,Kd,pH 7.4,approximately 1.5 nM
